The results in this text go back to patent US20140011734A1 (Sanofi, published 2014).

B1: Cyclo[Leu-His-Asn-Leu-NH-(CH2)6-CO-Thr-Glu-Arg-Nle-Ala] (peptide)
peptide: cyclo(LHNL[Ahp]TER[Nle]A)
SMILES: CCCC[C@@H]1NC(=O)[C@H](CCCNC(=N)N)NC(=O)[C@H](CCC(=O)O)NC(=O)[C@H]([C@@H](C)O)NC(=O)CCCCCCNC(=O)[C@H](CC(C)C)NC(=O)[C@H](CC(N)=O)NC(=O)[C@H](Cc2c[nH]cn2)NC(=O)[C@H](CC(C)C)NC(=O)[C@H](C)NC1=O
B2: Cyclo[Leu-His-Asn-Leu-NH-(CH2)6-CO-Thr-Glu-Arg-Met-Dpr] (peptide)
peptide: cyclo(LHNL[Ahp]TERM[Dap])
SMILES: CSCC[C@@H]1NC(=O)[C@H](CCCNC(=N)N)NC(=O)[C@H](CCC(=O)O)NC(=O)[C@H]([C@@H](C)O)NC(=O)CCCCCCNC(=O)[C@H](CC(C)C)NC(=O)[C@H](CC(N)=O)NC(=O)[C@H](Cc2c[nH]cn2)NC(=O)[C@H](CC(C)C)NC(=O)[C@H](CN)NC1=O
B3: Cyclo[Leu-His-Asn-Leu-NH-(CH2)6-CO-Thr-Glu-Arg-Cha-Ala] (peptide)
peptide: cyclo(LHNL[Ahp]TER[Cha]A)
SMILES: CC(C)C[C@@H]1NC(=O)[C@H](C)NC(=O)[C@H](CC2CCCCC2)NC(=O)[C@H](CCCNC(=N)N)NC(=O)[C@H](CCC(=O)O)NC(=O)[C@H]([C@@H](C)O)NC(=O)CCCCCCNC(=O)[C@H](CC(C)C)NC(=O)[C@H](CC(N)=O)NC(=O)[C@H](Cc2c[nH]cn2)NC1=O
B4: Cyclo[Leu-His-Asn-Leu-NH-(CH2)6-CO-Thr-Glu-Orn-Met-Ala] (peptide)
peptide: cyclo(LHNL[Ahp]TE[Orn]MA)
SMILES: CSCC[C@@H]1NC(=O)[C@H](CCCN)NC(=O)[C@H](CCC(=O)O)NC(=O)[C@H]([C@@H](C)O)NC(=O)CCCCCCNC(=O)[C@H](CC(C)C)NC(=O)[C@H](CC(N)=O)NC(=O)[C@H](Cc2c[nH]cn2)NC(=O)[C@H](CC(C)C)NC(=O)[C@H](C)NC1=O
B5: Cyclo[Leu-His-Asn-Leu-NH-(CH2)6-CO-Thr-Glu-Arg-Abu-Ala] (peptide)
peptide: cyclo(LHNL[Ahp]TER[Abu]A)
SMILES: CC[C@@H]1NC(=O)[C@H](CCCNC(=N)N)NC(=O)[C@H](CCC(=O)O)NC(=O)[C@H]([C@@H](C)O)NC(=O)CCCCCCNC(=O)[C@H](CC(C)C)NC(=O)[C@H](CC(N)=O)NC(=O)[C@H](Cc2c[nH]cn2)NC(=O)[C@H](CC(C)C)NC(=O)[C@H](C)NC1=O
B6: Cyclo[Leu-His-Asn-Leu-NH-(CH2)6-CO-Thr-Glu-Arg-Met-Ala] (peptide)
peptide: cyclo(LHNL[Ahp]TERMA)
modifications: also: made as TFA salt and as acetate salt
notes: Made as trifluoroacetic acid salt and also as acetic acid salt
B7: Cyclo[Leu-His-Asn-Leu-NH-(CH2)6-CO-Thr-Glu-Arg-Gln-Ala] (peptide)
peptide: cyclo(LHNL[Ahp]TERQA)
SMILES: CC(C)C[C@@H]1NC(=O)[C@H](C)NC(=O)[C@H](CCC(N)=O)NC(=O)[C@H](CCCNC(=N)N)NC(=O)[C@H](CCC(=O)O)NC(=O)[C@H]([C@@H](C)O)NC(=O)CCCCCCNC(=O)[C@H](CC(C)C)NC(=O)[C@H](CC(N)=O)NC(=O)[C@H](Cc2c[nH]cn2)NC1=O
B8: Cyclo[Leu-His-Asn-Leu-NH-(CH2)6-CO-Thr-Glu-Arg-Ala-Ala] (peptide)
peptide: cyclo(LHNL[Ahp]TERAA)
SMILES: CC(C)C[C@@H]1NC(=O)[C@H](C)NC(=O)[C@H](C)NC(=O)[C@H](CCCNC(=N)N)NC(=O)[C@H](CCC(=O)O)NC(=O)[C@H]([C@@H](C)O)NC(=O)CCCCCCNC(=O)[C@H](CC(C)C)NC(=O)[C@H](CC(N)=O)NC(=O)[C@H](Cc2c[nH]cn2)NC1=O
B9: Cyclo[Leu-His-Asn-Leu-NH-(CH2)6-CO-Asn-Glu-Arg-Met-Ala] (peptide)
peptide: cyclo(LHNL[Ahp]NERMA)
SMILES: CSCC[C@@H]1NC(=O)[C@H](CCCNC(=N)N)NC(=O)[C@H](CCC(=O)O)NC(=O)[C@H](CC(N)=O)NC(=O)CCCCCCNC(=O)[C@H](CC(C)C)NC(=O)[C@H](CC(N)=O)NC(=O)[C@H](Cc2c[nH]cn2)NC(=O)[C@H](CC(C)C)NC(=O)[C@H](C)NC1=O
B10: Cyclo[Leu-His-Asn-Leu-NH-(CH2)6-CO-Gln-Glu-Arg-Met-Ala] (peptide)
peptide: cyclo(LHNL[Ahp]QERMA)
SMILES: CSCC[C@@H]1NC(=O)[C@H](CCCNC(=N)N)NC(=O)[C@H](CCC(=O)O)NC(=O)[C@H](CCC(N)=O)NC(=O)CCCCCCNC(=O)[C@H](CC(C)C)NC(=O)[C@H](CC(N)=O)NC(=O)[C@H](Cc2c[nH]cn2)NC(=O)[C@H](CC(C)C)NC(=O)[C@H](C)NC1=O
B11: Cyclo[Leu-His-Asn-Leu-NH-(CH2)6-CO-Thr-Glu-Arg-Leu-Ala] (peptide)
peptide: cyclo(LHNL[Ahp]TERLA)
SMILES: CC(C)C[C@@H]1NC(=O)[C@H](C)NC(=O)[C@H](CC(C)C)NC(=O)[C@H](CCCNC(=N)N)NC(=O)[C@H](CCC(=O)O)NC(=O)[C@H]([C@@H](C)O)NC(=O)CCCCCCNC(=O)[C@H](CC(C)C)NC(=O)[C@H](CC(N)=O)NC(=O)[C@H](Cc2c[nH]cn2)NC1=O
B12: Cyclo[Cha-His-Asn-Leu-NH-(CH2)6-CO-Thr-Glu-Arg-Met-Ala] (peptide)
peptide: cyclo([Cha]HNL[Ahp]TERMA)
SMILES: CSCC[C@@H]1NC(=O)[C@H](CCCNC(=N)N)NC(=O)[C@H](CCC(=O)O)NC(=O)[C@H]([C@@H](C)O)NC(=O)CCCCCCNC(=O)[C@H](CC(C)C)NC(=O)[C@H](CC(N)=O)NC(=O)[C@H](Cc2c[nH]cn2)NC(=O)[C@H](CC2CCCCC2)NC(=O)[C@H](C)NC1=O
B13: Cyclo[Leu-His-Asn-Leu-NH-(CH2)6-CO-Dbu-Glu-Arg-Met-Ala] (peptide)
peptide: cyclo(LHNL[Ahp][Dab]ERMA)
SMILES: CSCC[C@@H]1NC(=O)[C@H](CCCNC(=N)N)NC(=O)[C@H](CCC(=O)O)NC(=O)[C@H](CCN)NC(=O)CCCCCCNC(=O)[C@H](CC(C)C)NC(=O)[C@H](CC(N)=O)NC(=O)[C@H](Cc2c[nH]cn2)NC(=O)[C@H](CC(C)C)NC(=O)[C@H](C)NC1=O
B14: Cyclo[Leu-His-Asn-Leu-NH-(CH2)6-CO-Thr-Glu-Arg-Amb-Ala] (peptide)
peptide: cyclo(LHNL[Ahp]TER[Amb]A)
SMILES: COCC[C@@H]1NC(=O)[C@H](CCCNC(=N)N)NC(=O)[C@H](CCC(=O)O)NC(=O)[C@H]([C@@H](C)O)NC(=O)CCCCCCNC(=O)[C@H](CC(C)C)NC(=O)[C@H](CC(N)=O)NC(=O)[C@H](Cc2c[nH]cn2)NC(=O)[C@H](CC(C)C)NC(=O)[C@H](C)NC1=O
B15: Cyclo[Nva-His-Asn-Leu-NH-(CH2)6-CO-Thr-Glu-Arg-Met-Ala] (peptide)
peptide: cyclo([Nva]HNL[Ahp]TERMA)
SMILES: CCC[C@@H]1NC(=O)[C@H](C)NC(=O)[C@H](CCSC)NC(=O)[C@H](CCCNC(=N)N)NC(=O)[C@H](CCC(=O)O)NC(=O)[C@H]([C@@H](C)O)NC(=O)CCCCCCNC(=O)[C@H](CC(C)C)NC(=O)[C@H](CC(N)=O)NC(=O)[C@H](Cc2c[nH]cn2)NC1=O
B16: Cyclo[Npg-His-Asn-Leu-NH-(CH2)6-CO-Thr-Glu-Arg-Met-Ala] (peptide)
peptide: cyclo([tBuAla]HNL[Ahp]TERMA)
B17: Cyclo[Leu-His-Asn-Leu-NH-(CH2)6-CO-Thr-Glu-Arg-Amp-Ala] (peptide)
peptide: cyclo(LHNL[Ahp]TER[Amp]A)
SMILES: COC[C@@H]1NC(=O)[C@H](CCCNC(=N)N)NC(=O)[C@H](CCC(=O)O)NC(=O)[C@H]([C@@H](C)O)NC(=O)CCCCCCNC(=O)[C@H](CC(C)C)NC(=O)[C@H](CC(N)=O)NC(=O)[C@H](Cc2c[nH]cn2)NC(=O)[C@H](CC(C)C)NC(=O)[C@H](C)NC1=O
B18: Cyclo[Leu-His-Asn-Leu-NH-(CH2)7-CO-Thr-Glu-Arg-Met-Ala] (peptide)
peptide: cyclo(LHNL[Aoc]TERMA)
SMILES: CSCC[C@@H]1NC(=O)[C@H](CCCNC(=N)N)NC(=O)[C@H](CCC(=O)O)NC(=O)[C@H]([C@@H](C)O)NC(=O)CCCCCCCNC(=O)[C@H](CC(C)C)NC(=O)[C@H](CC(N)=O)NC(=O)[C@H](Cc2c[nH]cn2)NC(=O)[C@H](CC(C)C)NC(=O)[C@H](C)NC1=O

Starred links: 1 amine or outer side, 2 acyl side, 3 side chain; linkers in the order of their positions; H or OH if unused. Non-standard residues stand in square brackets, D forms with d. Amp = L-2-amino-3-methoxypropionic acid, COC[C@H](N[*:1])C(=O)[*:2]; Amb = L-2-amino-4-methoxybutyric acid, COCC[C@H](N[*:1])C(=O)[*:2]; tBuAla = CC(C)(C)C[C@H](N)C(=O)O; Cha = N[C@@H](CC1CCCCC1)C(=O)O; Nle = CCCC[C@H](N)C(=O)O; Orn = NCCC[C@H](N)C(=O)O; Dab = NCC[C@H](N)C(=O)O; Nva = CCC[C@H](N)C(=O)O; Abu = CC[C@H](N)C(=O)O; Dap = NC[C@H](N)C(=O)O; Aoc = NCCCCCCCC(=O)O; Ahp = NCCCCCCC(=O)O

Broadly, the IC50 is the concentration at which inhibition is half-maximal. Read a high IC50 as weaker potency.

The first experiment deals with T1, blood platelet receptor glycoprotein Ib-IX-V complex (GPIb) (human, UniProt P07359 17-652; P13224 26-206; P14770 17-177; P40197 17-560).
T1 construct: whole, on cells; also called GPIb complex; GPIb receptor
T1 sequence (P07359 17-652, chain 1 of 4): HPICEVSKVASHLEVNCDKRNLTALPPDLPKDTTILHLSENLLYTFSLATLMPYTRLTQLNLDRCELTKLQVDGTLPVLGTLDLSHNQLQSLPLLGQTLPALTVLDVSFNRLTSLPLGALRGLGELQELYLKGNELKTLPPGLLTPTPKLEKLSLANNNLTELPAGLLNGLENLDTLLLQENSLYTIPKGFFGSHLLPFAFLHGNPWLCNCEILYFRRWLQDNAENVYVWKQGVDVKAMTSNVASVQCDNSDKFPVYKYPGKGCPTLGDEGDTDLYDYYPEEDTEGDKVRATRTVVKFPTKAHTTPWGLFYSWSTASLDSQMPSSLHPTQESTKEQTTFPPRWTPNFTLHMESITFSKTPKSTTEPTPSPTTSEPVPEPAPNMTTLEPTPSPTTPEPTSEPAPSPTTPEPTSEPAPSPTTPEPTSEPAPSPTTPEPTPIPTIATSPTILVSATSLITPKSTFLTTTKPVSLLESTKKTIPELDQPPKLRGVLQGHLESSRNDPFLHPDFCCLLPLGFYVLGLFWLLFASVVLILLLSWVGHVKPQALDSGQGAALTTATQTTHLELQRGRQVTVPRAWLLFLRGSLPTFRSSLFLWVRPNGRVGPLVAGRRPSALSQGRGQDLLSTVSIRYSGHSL
T1 sequence (P13224 26-206, chain 2 of 4): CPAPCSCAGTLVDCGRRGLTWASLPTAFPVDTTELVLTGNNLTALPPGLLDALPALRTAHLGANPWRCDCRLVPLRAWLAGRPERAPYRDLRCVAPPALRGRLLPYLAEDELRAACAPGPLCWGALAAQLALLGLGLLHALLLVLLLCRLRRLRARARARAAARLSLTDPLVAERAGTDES
T1 sequence (P14770 17-177, chain 3 of 4): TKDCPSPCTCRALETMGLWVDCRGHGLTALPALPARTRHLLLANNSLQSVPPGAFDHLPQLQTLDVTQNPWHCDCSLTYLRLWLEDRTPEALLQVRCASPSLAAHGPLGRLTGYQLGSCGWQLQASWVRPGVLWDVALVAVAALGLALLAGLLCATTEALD
T1 sequence (P40197 17-560, chain 4 of 4): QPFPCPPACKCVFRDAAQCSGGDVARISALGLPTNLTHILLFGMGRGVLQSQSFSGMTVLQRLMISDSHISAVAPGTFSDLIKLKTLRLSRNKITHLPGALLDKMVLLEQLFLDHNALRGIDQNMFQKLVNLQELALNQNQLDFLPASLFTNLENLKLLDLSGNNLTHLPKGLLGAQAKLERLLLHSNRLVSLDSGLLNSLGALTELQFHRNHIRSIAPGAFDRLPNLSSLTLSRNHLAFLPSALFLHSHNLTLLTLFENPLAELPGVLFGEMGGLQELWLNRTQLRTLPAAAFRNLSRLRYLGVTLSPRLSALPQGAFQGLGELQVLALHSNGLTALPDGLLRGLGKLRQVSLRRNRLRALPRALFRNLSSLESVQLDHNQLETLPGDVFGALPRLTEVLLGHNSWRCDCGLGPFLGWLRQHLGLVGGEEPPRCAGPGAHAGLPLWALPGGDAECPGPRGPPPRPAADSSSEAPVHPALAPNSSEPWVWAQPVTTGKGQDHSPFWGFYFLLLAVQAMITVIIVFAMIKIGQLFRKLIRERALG
The experiment in a line: inhibition of static adhesion of human platelets to coated vWF-A1; grade C = IC50 lower than 1 µM. The protocol:
Platelet rich plasma was carefully transferred again to fresh containers, PGE1 (0.5 μg/ml, Sigma) was added and the suspension was allowed to rest for 5 min. This was followed by another centrifugation step for 15 min at 360 g. The supernatant was discarded and the cell pellets were carefully resuspended in tyrode buffer (NaCl, 137 mM (Sigma S-3014); KCl, 2.7 mM (Sigma P-9541); NaHCO₃,12 mM (Riedel deHaen 31437); NaH₂PO₄×2H₂O, 0.36 mM (Merck 6345); MgCl₂×6 H₂O, 1 mM (Sigma M-2670); Hepes, 10 mM (Sigma H-1016); glucose, 5.6 mM (Merck 8342); BSA, 0.1% (Sigma A7906)), and PGE1 (0.25 μg/ml) was added. After 5 min of resting the suspension was spun down for 15 min at 300 g. The supernatant was discarded and the pellets were carefully resuspended in TBS buffer (Tris-HCl, 50 mM (Fluka 93371); NaCl, 120 mM (Sigma S-3014); KCl, 2.7 mM (Sigma P-9541); CaCl₂, 0.05 mM (Sigma C-3306); MgCl₂×6 H₂O, 2 mM (Sigma M-2670); BSA, 0.1% (Sigma A7906); pH 7.4). The platelet count was adjusted to 2×10⁵ cells/μl, and the suspensions from individual donors were pooled at this stage. The platelets were allowed to rest for 30 min at room temperature before calcein AM (2.5 μM per 2×10⁵ cells/pi (Molecular Probes C-3099)) was added. This was followed by 15 min incubation in the dark. Cells were diluted to 5×10⁴ cells/μl and ReoPro (3 μg/ml (Centocor B. V., Leiden, N L)) was added, followed by a 10 min incubation period in the dark before adding the platelets to the assay plates.
96 well plates (Greiner hb, black, clear bottom, F, 655097) were coated with human recombinant vWF-A1 domain (1.5 μg/well, AA 475-706, expressed in E. coli) in Tris buffer (pH 7.4; Tris-HCl, 25 mM; NaCl, 150 mM) and incubated for 1 h at room temperature. After washing the wells 3× with TBS, blocking buffer (TBS with 5% BSA) was added followed by an incubation for 1 h. The wells were washed again 3× with TBS before 200 μl TBS were added to each well, preventing them from drying out. TBS was flicked out and serial dilutions of the test compound were added. The washed and calcein AM labeled thrombocytes were added to the wells (2.5×10⁶ cells/well). Following an adhesion period of 1.5 h in the dark the wells were washed 3× with TBS. Measurement of fluorescence per well was performed in a SpectraMax M5 reader (Molecular Devices). From the raw data % inhibition and IC₅₀ values were calculated.
As for B1, the IC50 is less than 1 µM. For B2, the IC50 is less than 1 µM. B3: the IC50 is less than 1 µM. B4 came in with an IC50 of less than 1 µM. In turn, B5 gave an IC50 of less than 1 µM. The molecule B6 registered an IC50 of less than 1 µM. Turning to B7, the IC50 was less than 1 µM. As for B8, the IC50 was less than 1 µM. In turn, B9 returned an IC50 of less than 1 µM.

In turn, B10 registered an IC50 of less than 1 µM. B11 returned an IC50 of less than 1 µM. Consider B12, for which the IC50 was less than 1 µM. Same read-out and setting: to B13 belongs less than 1 µM; to B14, less than 1 µM. As to B15, the concentration for half-maximal inhibition (IC50) is less than 1 µM. Regarding B16, the half-maximal inhibitory concentration (IC50) is less than 1 µM. Same read-out and setting: to B17 belongs less than 1 µM; to B18, less than 1 µM.

The next experiment has as its target T1, blood platelet receptor glycoprotein …. The experiment in a line: cell-based or functional assay.
For B6, the “IC50 (average value), ristocetin-induced agglutination of human whole blood, impedance aggregometry” value is less than 1 µM.
